Measured values taken from article PMC3060061.

Molecular target: PP2A core enzyme (A–C core dimer) (human) (UniProt P30153)
Assay: ITC

Sequence of UniProt P30153 (P30153 whole entry, chain 1 of 2): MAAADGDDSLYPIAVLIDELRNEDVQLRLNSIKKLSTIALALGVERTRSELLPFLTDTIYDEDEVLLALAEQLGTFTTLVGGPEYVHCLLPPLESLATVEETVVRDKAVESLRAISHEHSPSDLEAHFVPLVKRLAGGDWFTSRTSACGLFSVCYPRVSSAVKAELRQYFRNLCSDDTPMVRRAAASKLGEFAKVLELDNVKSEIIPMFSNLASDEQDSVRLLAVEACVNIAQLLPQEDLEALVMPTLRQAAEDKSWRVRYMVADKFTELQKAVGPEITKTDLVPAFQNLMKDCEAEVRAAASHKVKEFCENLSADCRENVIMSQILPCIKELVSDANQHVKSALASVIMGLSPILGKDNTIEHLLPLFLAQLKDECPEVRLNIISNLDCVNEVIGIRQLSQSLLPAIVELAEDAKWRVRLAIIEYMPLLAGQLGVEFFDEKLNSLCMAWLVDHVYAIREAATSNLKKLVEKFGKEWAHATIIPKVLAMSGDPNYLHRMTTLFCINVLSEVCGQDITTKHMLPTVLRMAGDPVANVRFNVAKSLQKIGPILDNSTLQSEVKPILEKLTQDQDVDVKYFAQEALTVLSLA
Sequence of UniProt P30153 (P67775 whole entry, chain 2 of 2, further chain): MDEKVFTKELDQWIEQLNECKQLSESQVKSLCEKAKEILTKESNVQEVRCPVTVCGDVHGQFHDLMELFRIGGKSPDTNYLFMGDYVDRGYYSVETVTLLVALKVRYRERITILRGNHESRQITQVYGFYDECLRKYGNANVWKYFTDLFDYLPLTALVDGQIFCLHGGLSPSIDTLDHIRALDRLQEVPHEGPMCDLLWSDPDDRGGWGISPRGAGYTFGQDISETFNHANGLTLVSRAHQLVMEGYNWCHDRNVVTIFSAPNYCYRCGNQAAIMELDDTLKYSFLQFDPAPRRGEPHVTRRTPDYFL

fold increase of the binding affinity against wild type LCMT-1: 4 fold
Substance: LCMT-1 T29V (enzyme)
